This assay addresses Fas on the cell surface of human Jurkat T cell line (human) (UniProt P25445). Briefly: cell-based or functional assay.
Sequence of UniProt P25445 (P25445 26-335): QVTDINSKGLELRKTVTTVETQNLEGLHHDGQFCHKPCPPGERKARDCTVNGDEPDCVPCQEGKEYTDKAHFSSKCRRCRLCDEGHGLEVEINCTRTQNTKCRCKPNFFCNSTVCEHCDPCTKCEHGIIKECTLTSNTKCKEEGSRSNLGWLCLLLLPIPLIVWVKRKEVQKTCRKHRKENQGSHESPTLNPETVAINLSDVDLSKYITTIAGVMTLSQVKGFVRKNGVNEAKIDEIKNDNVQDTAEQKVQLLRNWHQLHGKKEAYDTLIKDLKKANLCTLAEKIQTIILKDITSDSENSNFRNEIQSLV

“streptavidin-FasL fusion protein (SAFasL) (from UniProt P48023 103-281) (ligand)” showed a cytotoxicity relative to the anti-Fas antibody of 3 times and a dead cells (Propidium Iodide staining of Jurkat T cells after 24 hr) of 87%.

The values are drawn from patent publication US20130224145A1.
